Measurements reported in US20180171024A1.

Columns and labels:
[1] = biological target: HLA-A2/TyrD-S23 on T2 cells (human); test: flow cytometry, T2 cells loaded with TyrD-S23 [..], 10 µg/ml
[2] = biological target: HLA-A2 on cells (tumor cell lines, normal primary cells, PBMCs) (human); test: flow cytometry, PBMCs #YE, 10 µg/ml
[3] = biological target: HLA-A2 on cells (tumor cell lines, normal primary cells, PBMCs) (human); test: flow cytometry, Caco2 cells
[4] = biological target: HLA-A2/WT1 126-134 complex on T2 cells (human); test: flow cytometry, T2 cells loaded with WT1 peptide
[5] = biological target: HLA-A2 on cells (tumor cell lines, normal primary cells, PBMCs) (human); test: flow cytometry, H522 cells, 10 µg/ml
[6] = biological target: HLA-A2/Gag on T2 cells (human); test: flow cytometry, T2 cells loaded with GAG peptide
[7] = biological target: HLA-A2 on cells (tumor cell lines, normal primary cells, PBMCs) (human); test: flow cytometry, Loucy cells
[8] = biological target: HLA-A2 on cells (tumor cell lines, normal primary cells, PBMCs) (human); test: flow cytometry, cardiac myocytes #6200-2, 10 µg/ml
[9] = biological target: HLA-A2/TyrD-S17 on T2 cells (human); test: flow cytometry, T2 cells loaded with TyrD-S17 [..], 10 µg/ml
[10] = biological target: HLA-A2 on cells (tumor cell lines, normal primary cells, PBMCs) (human); test: flow cytometry, hepatocytes #5200-1, 10 µg/ml
[11] = biological target: HLA-A2/TyrD-S13 on T2 cells (human); test: flow cytometry, T2 cells loaded with TyrD S13 [..], 10 µg/ml
[12] = biological target: HLA-A2/Tyrosinase369-377 complex on cells (human); test: flow cytometry, T2 cells loaded with TYR peptide
[13] = biological target: HLA-A2/TyrD-S6 on T2 cells (human); test: flow cytometry, T2 cells loaded with TyrD S6 [..], 10 µg/ml
[14] = biological target: HLA-A2/M1 on T2 cells (human); test: flow cytometry, T2 cells loaded with M1 peptide
[15] = biological target: HLA-A2 on other WT1 negative HLA-A2+ cells (other than 501, A498 and SKMEL; members not named); test: flow cytometry on U266 cells (WT1 mRNA -)
[16] = biological target: HLA-A2 on unloaded T2 cells (human); test: flow cytometry, T2 cells
[17] = biological target: HLA-A2/NFACT on T2 cells (human); test: flow cytometry, T2 cells loaded with NFACT peptide
[18] = biological target: HLA-A2/TyrD-S15 on T2 cells (human); test: flow cytometry, T2 cells loaded with TyrD S15 [..], 10 µg/ml
[19] = biological target: HLA-A2/TyrD-S18 on T2 cells (human); test: flow cytometry, T2 cells loaded with TyrD-S18 [..], 10 µg/ml
[20] = biological target: HLA-A2/MAGE-A4 230-239 complex on cells (human); test: flow cytometry, T2 cells loaded with MAGE-A4 [..], 10 µg/ml
[21] = biological target: HLA-A2/DUSP5 on T2 cells (human); test: flow cytometry, T2 cells loaded with DUSP5 peptide
[22] = biological target: HLA-A2/TyrD-S16 on T2 cells (human); test: flow cytometry, T2 cells loaded with TyrD S16 [..], 10 µg/ml
[23] = biological target: HLA-A2/KIAA0355 on T2 cells (human); test: flow cytometry, T2 cells loaded with KIAA0335 [..], 10 µg/ml
[24] = biological target: HLA-A2 on cells (tumor cell lines, normal primary cells, PBMCs) (human); test: flow cytometry, astrocytes #1800, 10 µg/ml
[25] = biological target: HLA-A2 on cells (tumor cell lines, normal primary cells, PBMCs) (human); test: flow cytometry, PANC-1 pancreatic carcinoma cells, 10 µg/ml
[26] = biological target: HLA-A2/TyrD-S7 on T2 cells (human); test: flow cytometry, T2 cells loaded with TyrD S7 [..], 10 µg/ml
[27] = biological target: HLA-A2 on cells (tumor cell lines, normal primary cells, PBMCs) (human); test: flow cytometry, WM-115 melanoma cells
[28] = biological target: HLA-A2/Tyrosinase369-377 complex on cells (human); test: flow cytometry, T2 cells loaded with TyrD [..], 10 µg/ml
[29] = biological target: HLA-A2/WT1 126-134 complex on T2 cells (human); test: flow cytometry, T2 cells loaded with WT1 peptide 1x10e-5M
[30] = biological target: HLA-A2/WT1 126-134 complex on T2 cells (human); test: flow cytometry, T2 cells loaded with WT1 1x10e-4M in DMSO
[31] = biological target: HLA-A2/WT1-S7 on T2 cells (human); test: flow cytometry, peptide-loaded T2 cells (10^-4-10^-5 M)
[32] = biological target: HLA-A2/WT1-S16 on T2 cells (human); test: as above
[33] = biological target: HLA-A2/WT1-S6 on T2 cells (human); test: as above
[34] = biological target: HLA-A2/WT1-S13 on T2 cells (human); test: as above
[35] = biological target: HLA-A2/WT1-S11 on T2 cells (human); test: as above
[36] = biological target: HLA-A2/WT1-S10 on T2 cells (human); test: as above
[37] = biological target: HLA-A2/WT1-S22 on T2 cells (human); test: as above
[38] = biological target: HLA-A2 on HLA-A2+/WT1+ SET2 cells (WT1 mRNA positive; WT1 126-134 peptide not detected by mass spectrometry of eluted HLA peptides); test: flow cytometry on SET-2 cells (WT1 mRNA +)
[39] = biological target: HLA-A2 on cells (tumor cell lines, normal primary cells, PBMCs) (human); test: flow cytometry, IM-9 cells, 10 µg/ml

BB7.2 (antibody)
MFI relative to background [1]: 443 | MFI [2]: 366 | GeoMean [3]: 123 | MFI [4]: 2320 | MFI [5]: 52.7 | MFI [6]: 1840 | GeoMean [7]: 734 | MFI [8]: 733 | MFI relative to background [9]: 444 | MFI [10]: 591 | MFI relative to background [11]: 749 | MFI [12]: 2200 | MFI relative to background [13]: 516 | MFI [14]: 1990 | MFI [15]: 80.1 | GeoMean [16]: 1380 | MFI [17]: 2720 | MFI relative to background [18]: 642 | MFI relative to background [19]: 838 | MFI relative to background [20]: 965 | MFI [21]: 2470 | MFI relative to background [22]: 421 | MFI relative to background [23]: 714 | MFI [24]: 751 | MFI [25]: 242 | MFI relative to background [26]: 666 | MFI [27]: 127 | MFI relative to background [28]: 561 | MFI [29]: 369 | MFI [30]: 722 | MFI [31]: 592 | MFI [32]: 379 | MFI [33]: 500 | MFI [34]: 296 | MFI [35]: 449 | MFI [36]: 450 | MFI [37]: 376 | MFI [38]: 890 | MFI [39]: 457
